Columns and labels:
[1] = target: Equine IL4R-ECD_C-HuFc_His6 (processed) (equine); test: Western blot, reducing and non-reducing SDS-PAGE
Description: (§1) Cross-reactivity of Clone I antibody to feline, equine, murine, and human IL4R was also investigated. Canine IL4R-ECD_C-HuFc_His6 (SEQ ID NO: 109), feline IL4R-ECD_C-HuFc_His6 (SEQ ID NO: 111), equine IL4R-ECD_C-HuFc_His6 (SEQ ID NO: 113), murine IL4R-ECD_C-HuFc_His6 (SEQ ID NO: 115), and human IL4R-ECD_C-HuFc_His6 (SEQ ID NO: 117) (0.1 μg/lane) were each separated by SDS-PAGE under reducing (+DTT) or non-reducing (−DTT) conditions. The proteins were transferred to PVDF membranes and the blots were probed with Clone I antibody (0.3 μg/mL) and visualized by goat anti-mouse IgG-HRP (FIG. 4A). As a control, the blot was stripped and probed with goat anti-human IgG Fc-HRP to visualize the presence of the IL4R-ECD proteins (FIG. 4B). Clone I antibody immunoreacted with canine IL4R-ECD_C-HuFc_His6 and to a lesser extent with feline IL4R-ECD_C-HuFc_His6 under non-reducing conditions (FIG. 4A, lanes 5 and 1, respectively).

[2] = target: Murine IL4R-ECD_C-HuFc_His6 (processed) (murine); test: Western blot, reducing and non-reducing SDS-PAGE
Chain of Murine IL4R-ECD_C-HuFc_His6 (processed) (murine) (chain, as listed by the source limits assumed): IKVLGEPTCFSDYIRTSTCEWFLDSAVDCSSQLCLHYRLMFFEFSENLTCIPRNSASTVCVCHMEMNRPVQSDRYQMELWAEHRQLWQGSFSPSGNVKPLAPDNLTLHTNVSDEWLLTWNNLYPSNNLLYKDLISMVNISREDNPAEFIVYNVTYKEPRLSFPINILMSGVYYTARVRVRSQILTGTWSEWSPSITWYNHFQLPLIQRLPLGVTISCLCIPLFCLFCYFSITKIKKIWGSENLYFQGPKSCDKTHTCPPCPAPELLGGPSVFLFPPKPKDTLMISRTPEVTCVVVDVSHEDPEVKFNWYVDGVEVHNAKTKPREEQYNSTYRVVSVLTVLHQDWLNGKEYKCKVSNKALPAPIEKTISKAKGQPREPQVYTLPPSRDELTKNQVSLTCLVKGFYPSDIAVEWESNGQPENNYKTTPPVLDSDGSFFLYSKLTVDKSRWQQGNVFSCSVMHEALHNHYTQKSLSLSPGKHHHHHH
Description: as §1

[3] = target: Human IL4R-ECD_C-HuFc_His6 (processed) (human); test: Western blot, reducing and non-reducing SDS-PAGE
Chain of Human IL4R-ECD_C-HuFc_His6 (processed) (human) (chain, as listed by the source limits assumed): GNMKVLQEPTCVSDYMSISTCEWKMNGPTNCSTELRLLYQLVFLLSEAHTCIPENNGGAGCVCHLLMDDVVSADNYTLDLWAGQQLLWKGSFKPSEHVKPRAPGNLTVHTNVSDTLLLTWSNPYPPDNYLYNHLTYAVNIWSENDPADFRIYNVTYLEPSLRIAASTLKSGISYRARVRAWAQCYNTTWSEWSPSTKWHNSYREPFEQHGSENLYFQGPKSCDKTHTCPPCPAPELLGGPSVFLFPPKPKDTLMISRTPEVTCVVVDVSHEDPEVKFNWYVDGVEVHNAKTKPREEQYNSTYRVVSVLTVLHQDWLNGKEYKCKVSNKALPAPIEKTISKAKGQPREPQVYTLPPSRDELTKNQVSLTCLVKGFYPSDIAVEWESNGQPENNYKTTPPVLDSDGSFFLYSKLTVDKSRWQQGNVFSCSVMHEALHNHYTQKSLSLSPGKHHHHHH
Description: as §1

[4] = target: Canine/Human IL4R-ECD_C-HuFc_His6_Hybrid1 (canine/human hybrid); test: Western blot, non-reducing, 293 supernatant concentrated 3-fold
Chain of Canine/Human IL4R-ECD_C-HuFc_His6_Hybrid1 (canine/human hybrid) (chain, as listed by the source limits assumed): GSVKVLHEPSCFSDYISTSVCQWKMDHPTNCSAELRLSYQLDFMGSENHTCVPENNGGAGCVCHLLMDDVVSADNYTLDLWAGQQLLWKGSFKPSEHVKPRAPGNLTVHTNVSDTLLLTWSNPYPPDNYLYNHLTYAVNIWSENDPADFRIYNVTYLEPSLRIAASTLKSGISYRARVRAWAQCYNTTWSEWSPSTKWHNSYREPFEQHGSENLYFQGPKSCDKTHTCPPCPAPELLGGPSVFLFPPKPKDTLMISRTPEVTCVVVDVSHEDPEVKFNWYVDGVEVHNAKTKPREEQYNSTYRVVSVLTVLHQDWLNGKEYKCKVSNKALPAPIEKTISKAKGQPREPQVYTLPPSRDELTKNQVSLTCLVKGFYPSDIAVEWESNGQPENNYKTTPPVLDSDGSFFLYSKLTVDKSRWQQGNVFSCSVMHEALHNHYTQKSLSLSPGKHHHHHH

[5] = target: Canine/Human IL4R-ECD_C-HuFc_His6_Hybrid6 (canine/human hybrid); test: as above
Chain of Canine/Human IL4R-ECD_C-HuFc_His6_Hybrid6 (canine/human hybrid) (chain, as listed by the source limits assumed): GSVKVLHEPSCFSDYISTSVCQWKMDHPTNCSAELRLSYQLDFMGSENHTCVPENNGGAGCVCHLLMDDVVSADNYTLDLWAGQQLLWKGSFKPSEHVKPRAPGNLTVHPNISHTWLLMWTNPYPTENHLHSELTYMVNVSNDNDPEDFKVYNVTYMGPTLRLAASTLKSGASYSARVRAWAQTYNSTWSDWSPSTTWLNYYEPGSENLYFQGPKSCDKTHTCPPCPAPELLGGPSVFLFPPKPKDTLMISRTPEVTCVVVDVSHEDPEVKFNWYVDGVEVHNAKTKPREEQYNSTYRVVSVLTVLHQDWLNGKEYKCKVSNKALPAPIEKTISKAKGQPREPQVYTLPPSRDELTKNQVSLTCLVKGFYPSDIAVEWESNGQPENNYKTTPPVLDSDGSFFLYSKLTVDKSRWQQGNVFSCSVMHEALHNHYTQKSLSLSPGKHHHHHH

[6] = target: Canine/Human IL4R-ECD_C-HuFc_His6_Hybrid13 (canine/human hybrid); test: as above
Chain of Canine/Human IL4R-ECD_C-HuFc_His6_Hybrid13 (canine/human hybrid) (chain, as listed by the source limits assumed): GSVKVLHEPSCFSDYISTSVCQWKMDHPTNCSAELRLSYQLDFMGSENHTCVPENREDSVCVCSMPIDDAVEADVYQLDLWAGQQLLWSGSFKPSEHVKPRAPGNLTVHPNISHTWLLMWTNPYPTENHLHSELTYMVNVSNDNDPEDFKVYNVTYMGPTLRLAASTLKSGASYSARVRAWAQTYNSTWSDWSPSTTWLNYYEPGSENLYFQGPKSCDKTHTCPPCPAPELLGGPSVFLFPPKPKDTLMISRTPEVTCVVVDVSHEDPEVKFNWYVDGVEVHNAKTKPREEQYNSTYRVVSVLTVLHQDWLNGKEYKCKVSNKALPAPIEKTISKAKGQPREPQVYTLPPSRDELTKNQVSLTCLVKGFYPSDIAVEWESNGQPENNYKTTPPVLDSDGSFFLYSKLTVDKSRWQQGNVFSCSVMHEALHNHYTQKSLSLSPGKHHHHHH

[7] = target: Feline IL4R-ECD_C-HuFc_His6 (processed) (feline, biotinylated in the Octet assay of Example 10); test: BLI (Octet): biotinylated feline IL4R-ECD_C-HuFc_His6 on streptavidin tips, Clone I 25 ug/mL, 1:1 model
Chain of Feline IL4R-ECD_C-HuFc_His6 (processed) (feline, biotinylated in the Octet assay of Example 10) (chain, as listed by the source limits assumed): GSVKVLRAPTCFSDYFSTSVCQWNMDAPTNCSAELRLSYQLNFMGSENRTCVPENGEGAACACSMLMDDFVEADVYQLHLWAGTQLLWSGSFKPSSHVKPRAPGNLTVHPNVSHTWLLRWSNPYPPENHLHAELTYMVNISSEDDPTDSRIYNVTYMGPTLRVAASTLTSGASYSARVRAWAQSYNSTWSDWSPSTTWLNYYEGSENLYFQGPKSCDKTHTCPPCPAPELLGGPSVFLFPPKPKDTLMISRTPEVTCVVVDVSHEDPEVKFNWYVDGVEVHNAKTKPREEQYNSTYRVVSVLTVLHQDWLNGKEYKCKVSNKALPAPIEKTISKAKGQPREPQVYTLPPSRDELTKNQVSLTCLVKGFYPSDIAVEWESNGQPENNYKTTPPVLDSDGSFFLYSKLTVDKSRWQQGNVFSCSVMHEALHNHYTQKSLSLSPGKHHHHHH
Description: This finding was consistent with in vitro binding affinity measured by Octet Biosensor. Biotinylated feline IL4R-ECD_C-HuFc_His6 (SEQ ID NO: 111) was captured on streptavidin sensor tips. The association of Clone I antibody (25 μg/mL) and feline IL4R-ECD_C-HuFc_His6 was monitored for 600 seconds. Dissociation was monitored for 600 seconds. A buffer only blank curve was subtracted to correct for any drift. The data were fit to a 1:1 binding model using ForteBio™ data analysis software to determine the kₒₙ, koff, and the Kd. The buffer for dilutions and all binding steps was 20 mM phosphate, 150 mM NaCl, pH 7.2.

Chain of Equine IL4R-ECD_C-HuFc_His6 (processed) (equine) (chain, as listed by the source limits assumed): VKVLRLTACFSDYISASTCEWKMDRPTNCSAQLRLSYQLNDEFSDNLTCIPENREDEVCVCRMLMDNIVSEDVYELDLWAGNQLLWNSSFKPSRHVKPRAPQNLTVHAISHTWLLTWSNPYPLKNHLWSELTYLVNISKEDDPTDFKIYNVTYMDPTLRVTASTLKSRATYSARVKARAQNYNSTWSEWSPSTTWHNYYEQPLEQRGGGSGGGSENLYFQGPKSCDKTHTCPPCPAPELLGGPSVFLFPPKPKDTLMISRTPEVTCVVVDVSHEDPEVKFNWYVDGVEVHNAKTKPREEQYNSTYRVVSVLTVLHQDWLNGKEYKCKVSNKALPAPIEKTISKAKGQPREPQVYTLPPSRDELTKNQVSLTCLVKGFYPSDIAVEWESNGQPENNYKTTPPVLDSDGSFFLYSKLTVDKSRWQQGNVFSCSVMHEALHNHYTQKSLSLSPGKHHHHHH

binding result [4]: binds
binding result [5]: binds
binding result [6]: binds
Kd [7]: 1.1 nM
B1: Clone I antibody (mouse monoclonal anti-canine IL4R) (antibody, mouse IgG1, kappa, V domains shown)
VH: EVQLQQSGPELVKPGASVKMSCKASGYTFTSYVMHWVKQKPGQGLEWIGYINPNNDGTFYNGKFKGKATLTSDKSSSTAYMELSSLTSEDSAVYYCAAFYYGFAYWGQGTLVTVSA
VL: DIVLTQSPSSLSASLGERVSLTCRASQEISGYLSWLQQKPDGTIKRLIYAASTLDSGVPKRFSGSRSGSDFSLTISSLESEDFADYYCLQYASYPWTFGGGAKLEIKR
notes: Mouse IgG; also called anti-IL4R-mAb Clone I
binding result [1]: no binding (tested: Clone I 0.3 ug/mL; 0.1 ug/lane)
binding result [2]: no binding (tested: Clone I 0.3 ug/mL; 0.1 ug/lane)
binding result [3]: no binding (tested: Clone I 0.3 ug/mL; 0.1 ug/lane)

From patent publication US20220049002A1 (KINDRED BIOSCIENCES, published 2022)
